Experimental data published in the supplement of paper PMC7877785.
± gives the uncertainty stated by the source.

Experiment: self-splicing fitness, log relative to wild type (ln ratio); higher = more splicing; Tetrahymena group I intron in knt gene, E. coli kanamycin selection, DiMSum; sequences stand for … in CUCUCU…GGAGGGAAAAGUUAUCAGGCAUGCACCUGGUAGCUAGUCUUUAAACCAAUAGAUUGCAUCGGUUUAAAAGGCAAGACCGUCAAAUUGCGGGAAAGGGGUCAACAGCCGUUCAGUACCAAGUCUCAGGGGAAACUUUGAGAUGGCCUUGCAAAGGGUAUGGUAAUAAGCUGACGGACAUGGUCCUAACCACGCAGCCAAGUCCUAAGUCAACAGAUCUUCUGUUGAUAUGGAUGCAGUUCACAGACUAAAUGUCGGUCGGGGAAGAUGUAUUCUUCUCAUAAGAUAUAGUCGGACCUCUCCUUAAUGGGAGCUAGCGGAUGAAGUGAUGCAACACUGGAGCCGCUGGGAACUAAUUUGUAUGCGAAAGUAUAUUGAUUAGUUUUGGAGUACUCGUGGUCG
Outline: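 Colonies from six replicate transformations of E. coli BL21(DE3) were pooled and amplicon-sequenced on an Illumina HiSeq 2500. The library placed an intron with all eight P1ex-region nucleotides randomised inside the knt kanamycin-resistance gene on pET-22b(+), and cells grew overnight at 37°C or 30°C on LB agar with or without 25 μg/mL kanamycin (plus 100 μg/mL carbenicillin, 50 μM IPTG, 0.2% rhamnose). Fitness is the DiMSum error-weighted combination of wild-type-normalised replicate fold changes, kanamycin versus none.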

| Sequence | self-splicing fitness (ln) (30 °C) | self-splicing fitness (ln) (37 °C) |
| --- | --- | --- |
| ACGCAGCAAUAUUACGCCCG | -0.491 ± 0.13 | -0.64 ± 0.19 |
| GGGUAGCAAUAUUACGCCAA | -0.499 ± 0.16 | -0.0896 ± 0.15 |
| UAUAAGCAAUAUUACGGCAU | -0.623 ± 0.077 | -0.223 ± 0.098 |
| GGAUAGCAAUAUUACGCUAU |  | -2.05 ± 0.31 |
| CUGUAGCAAUAUUACGUCGC | -2.89 ± 0.28 | -3.19 ± 0.4 |
| GCAAAGCAAUAUUACGCGCG | -1.55 ± 0.12 | -0.161 ± 0.15 |
| AAUCAGCAAUAUUACGCGGA | -0.694 ± 0.076 | -0.555 ± 0.079 |
| CAACAGCAAUAUUACGGCCG | 0.255 ± 0.072 | 0.563 ± 0.1 |
| GUUAAGCAAUAUUACGGAGA | -3.29 ± 0.26 | -2.57 ± 0.25 |
| CGUGAGCAAUAUUACGAGGA | -3.04 ± 0.39 | -1.65 ± 0.33 |
| GCCGAGCAAUAUUACGAUUC | -1.3 ± 0.13 | 0.294 ± 0.17 |
| CAUCAGCAAUAUUACGAUAC | -2.95 ± 0.16 | -1.75 ± 0.16 |
| AUGUAGCAAUAUUACGAGGG | -3.49 ± 0.23 | -1.18 ± 0.22 |
| ACCCAGCAAUAUUACGCAGG | -3.07 ± 0.11 | -2.48 ± 0.16 |
| GAGGAGCAAUAUUACGUCAA | -2.72 ± 0.31 |  |
| UUUCAGCAAUAUUACGGUUU | -0.595 ± 0.073 | -0.244 ± 0.092 |
| CUGAAGCAAUAUUACGCCGU | -2.92 ± 0.31 | -2.4 ± 0.3 |
| AAGAAGCAAUAUUACGUCUC | -2.04 ± 0.12 | -1.69 ± 0.16 |
| AAACAGCAAUAUUACGACCG | -1.6 ± 0.14 | 0.0387 ± 0.18 |
| CCAAAGCAAUAUUACGUACC | -3.76 ± 0.37 | -2.19 ± 0.32 |
| GUAGAGCAAUAUUACGCCUA | -1.39 ± 0.26 | -1.18 ± 0.24 |
| ACAGAGCAAUAUUACGUUAU | -3.59 ± 0.19 | -3 ± 0.25 |
| AGGAAGCAAUAUUACGCGCA | -0.555 ± 0.13 | 0.268 ± 0.16 |
| UAUAAGCAAUAUUACGGGGC | -2.29 ± 0.45 |  |
| UAUUAGCAAUAUUACGAAAG | -2.42 ± 0.37 |  |

| Sequence | self-splicing fitness (ln) (30 °C) | self-splicing fitness (ln) (37 °C) |
| --- | --- | --- |
| CCACAGCAAUAUUACGUUGC | -3.44 ± 0.13 | -2.73 ± 0.14 |
| GCUCAGCAAUAUUACGGACC | -0.753 ± 0.1 | -0.186 ± 0.13 |
| CUUUAGCAAUAUUACGGGCG | -0.935 ± 0.12 | 0.00294 ± 0.15 |
| UCGAAGCAAUAUUACGAAAG | -3.24 ± 0.23 | -2.47 ± 0.44 |
| ACUGAGCAAUAUUACGACCA | -2.57 ± 0.39 | -1.1 ± 0.28 |
| AAGCAGCAAUAUUACGCACC | -0.735 ± 0.085 | 0.0945 ± 0.09 |
| UAGCAGCAAUAUUACGGGCA | -0.608 ± 0.11 | -0.41 ± 0.1 |
| UGAGAGCAAUAUUACGAGCC | -1.9 ± 0.33 |  |
| CCUUAGCAAUAUUACGUUGG | -3.71 ± 0.21 | -3.32 ± 0.26 |
| AACGAGCAAUAUUACGCAAA |  | -1.9 ± 0.35 |
| GUGGAGCAAUAUUACGGGCC |  | -0.665 ± 0.48 |
| AUAAAGCAAUAUUACGGCCU | 0.372 ± 0.11 | 0.382 ± 0.14 |
| UAGUAGCAAUAUUACGACCG | -0.133 ± 0.16 | 0.109 ± 0.16 |
| CCAGAGCAAUAUUACGUUCU | -3.71 ± 0.31 | -1.84 ± 0.31 |
| GCGAAGCAAUAUUACGACAG | -3.79 ± 0.16 | -1.97 ± 0.21 |
| UAGUAGCAAUAUUACGGAGA | -3.56 ± 0.47 | -3.35 ± 0.35 |
| UCCCAGCAAUAUUACGCUCU | -2.77 ± 0.16 | -1.7 ± 0.17 |
| UUCAAGCAAUAUUACGAGUA | -0.831 ± 0.083 | -0.136 ± 0.089 |
| AUUCAGCAAUAUUACGGACC | -0.601 ± 0.1 | 0.355 ± 0.15 |
| AGCUAGCAAUAUUACGAAUU | -1.74 ± 0.11 | -1.14 ± 0.13 |
| GUAUAGCAAUAUUACGCAAG | -3.76 ± 0.4 | -1.64 ± 0.25 |
| GGGAAGCAAUAUUACGUCGU | -0.671 ± 0.16 | -0.462 ± 0.16 |
| UAGCAGCAAUAUUACGAACA | -0.591 ± 0.069 | 0.237 ± 0.081 |
| UCGAAGCAAUAUUACGGCAU | -3.26 ± 0.2 | -1.62 ± 0.24 |
| CUUCAGCAAUAUUACGGUUU | -3.8 ± 0.15 | -2.55 ± 0.13 |
